Assay results: patent US10100114B2, “Antibodies specific for TROP-2 and their uses” (RINAT NEUROSCIENCE CORP., priority 2011, dated 2018)

What was measured:
Colo205 xenograft = test: In vivo efficacy of Trop-2 ADCs, colorectal tumor Colo205 xenograft model; design: species or system nu/nu mice; settings: single dose of 6 mg/kg, tail vein; FIG. 10
Procedure: In vivo efficacy study of Trop-2 ADCs was performed with target-expressing colo205 xenograft model. Three millions of colo205 colon cancer cells were implanted subcutaneously into 5-8 weeks old nu/nu mice until the tumor sizes reached ˜300 mm^3. […] Tumor volume is measured once a week by a Caliper device and calculated with the following formula: Tumor volume=(length×width^2)/2. Studies were terminated before their tumor volumes reached 2000 mm^3.

[1] = system: pancreatic cancer patient derived xenograft (PDX Pan0146); test: In vivo efficacy of Trop-2 ADC, pancreatic PDX Pan0146
Procedure: In vivo efficacy studies of Trop-2 ADC using humanized anti-Trop-2 antibody (h7E6SVG) conjugated with TG6-vc0101 were performed with target-expressing pancreatic cancer patient derived xenograft model (PDX Pan0146) from Jackson Laboratories (Bar Harbor, Me.). For efficacy studies, 1-2 mm^3 of tumor fragments were implanted subcutaneously into the lateral flanks of the animals. […] Gemcitabine was given at 75 mg/kg twice weekly for a total of 6 doses. […] Gemcitabine was given once weekly at 75 mg/kg for 4 doses. Tumor volume was measured once a week by a Caliper device and calculated with the following formula: Tumor volume=(length×width^2)/2. Studies were terminated before their tumor volumes reached 2000 mm^3.

[2] = system: SW620 cells (Trop-2 non-expressing); test: Cytotoxicity of ADCs (CellTiter-Glo), SW620; assay type: cell-based; settings: Table 13; SW620, Trop2 expression −; 96 hours; concentration of total Ab
Procedure: Target expressing (A431, BxPC3, CAPAN-2 and Colo205) or non-expressing (SW620) cells were seeded on white walled clear bottom plates at 2000 cells/well for 24 hours before treatment. Cells were treated with 4 fold serially diluted antibody-drug conjugates in triplicates. Cell viability was determined by CellTiter-Glo® Luminescent Cell Viability Assay 96 (Promega, Madison Wis.) 96 hours after treatment. Relative cell viability was determined as percentage of untreated control. IC50 was calculated by Prism software.
2-methylalanyl-N-[(3R,4S,5S)-3-methoxy-1-{(2S)-2-[(1R,2R)-1-methoxy-2-methyl-3-oxo-3-{[(1S)-2-phenyl-1-(1,3-thiazol-2-yl)ethyl]amino}propyl]pyrrolidin-1-yl}-5-methyl-1-oxoheptan-4-yl]-N-methyl-L-valinamide is a novel auristatin, as described in U.S. Application Nos. 61/561,255 and 61/676,423. Method of conjugating Trop-2 antibodies using transglutaminase tags is described in Example 9. Target expressing or non-expressing (SW620) cells were seeded on white walled clear bottom plates at 2000 (A431, BxPC3, NCI-H292, NCI-H1650, MDA-MB-468 and SW620), 2500 (Calu-3) or 3000 (OVCAR3 and SKBR3) cells per well for 24 hours before treatment. Cells were treated with 4 fold serially diluted antibody-drug conjugates in triplicates. Cell viability was determined by CellTiter-Glo® Luminescent Cell Viability Assay 96 (Promega, Madison, Wis.) 96 hours after treatment. Relative cell viability was determined as percentage of untreated control. IC50 was calculated by GraphPad Prism 5 software and expressed as concentration (nM) of total Ab.

BxPC3 xenograft = test: In vivo efficacy of humanized Trop-2 ADCs, pancreatic tumor BxPC3 xenograft model; design: species or system CB17/SCID mice; settings: single dose, tail vein; FIGS. 9A-9C
Procedure: In vivo efficacy studies of Trop-2 ADCs were performed with target-expressing BxPC3 xenograft model. Two million BxPC3 pancreatic cancer cells were implanted subcutaneously into 5-8 weeks old CB17/SCID mice until the tumor sizes reached between 300-400 mm^3. […] Tumor volume was measured once a week by a Caliper device and calculated with the following formula: Tumor volume=(length×width^2)/2. Studies were terminated before their tumor volumes reached 2000 mm^3.

[3] = system: ovarian cancer patient derived xenograft (PDX Ova196756); test: In vivo efficacy of Trop-2 ADC, ovarian PDX Ova196756; design: species or system CB17/SCID mice; settings: single dose, […] and 1.5 mg/kg, tail vein; FIG. 11
Procedure: This tumor sample was derived from surgical specimen and propagated in NSG mice (Jackson Laboratories, Bar Harbor, Me.). For efficacy studies, approximately 1-2 mm^3 of tumor fragments were implanted subcutaneously into the lateral flanks of CB17/SCID mice. […] Tumor volume was measured once a week by a caliper device and calculated with the following formula: Tumor volume=(length×width^2)/2. Studies were terminated before their tumor volumes reached 2000 mm^3.

[4] = system: pancreatic cancer patient derived xenograft (PDX Pan144607); test: In vivo efficacy of Trop-2 ADC, pancreatic PDX Pan144607; design: species or system CB17/SCID mice; settings: single dose of 1.5, 3.0 and 6.0 mg/kg, tail vein; FIG. 13
Procedure: In vivo efficacy study of Trop-2 ADC using humanized anti-Trop-2 antibody (h7E6SVG) conjugated with vc0101 or PEG6MMAD was performed with target-expressing pancreatic cancer patient derived xenograft model (PDX Pan144607). This tumor sample was derived from surgical specimen and propagated in NSG mice (Jackson Laboratories, Bar Harbor, Me.). For efficacy studies, approximately 1-2 mm^3 of tumor fragments were implanted subcutaneously into the lateral flanks of CB17/SCID mice. Animals were randomized by tumor sizes once they reached ˜300 mm^3, and single dose of 1.5, 3.0 and 6.0 mg/kg h7E6SVG-N297Q/K222R-PEG6MMAD and the control conjugate were administered through bolus tail vein injection. Tumor volume was measured once a week by a Caliper device and calculated with the following formula: Tumor volume=(length×width^2)/2. Studies were terminated before their tumor volumes reach 2000 mm^3.

[5] = system: pancreatic cancer patient derived xenograft (PDX Pan0135); test: In vivo efficacy of Trop-2 ADC, pancreatic PDX Pan0135; settings: 6 mg/kg single dose, tail vein; FIG. 14
Procedure: In vivo efficacy study of Trop-2 ADC using humanized anti-Trop-2 antibody (h7E6SVG) conjugated with PEG6MMAD was performed with target-expressing pancreatic cancer patient derived xenograft model (PDX Pan0135) from Jackson Laboratories. For efficacy studies, approximately 1-2 mm^3 of tumor fragments were implanted subcutaneously into the lateral flanks of the animals. Animals were randomized by tumor sizes once they reached ˜300 mm^3 and 6 mg/kg of h7E6SVG-N297Q/K222R-PEG6MMAD and the control conjugate were administered through bolus tail vein injection with single dose. Tumor volume was measured once a week by a Caliper device and calculated with the following formula: Tumor volume=(length×width^2)/2. Studies were terminated before their tumor volumes reached 2000 mm^3.

| Molecule | tumor response, Colo205 xenograft (Colo205 xenograft) | tumor response on continuous dosing, Pan0146 PDX ([1]; […] weekly x4, 1.5 mg/kg bi-weekly x2 or 3.0 mg/kg single dose, FIG. 12B) | efficacy to induce tumor regression compared with gemcitabine, Pan0146 PDX ([1]; single dose vs gemcitabine 75 mg/kg twice weekly, 6 doses, FIG. 12A) | IC50 [2] [nM] | tumor response, BxPC3 xenograft (BxPC3 xenograft) | tumor response, ovarian PDX Ova196756 [3] | tumor response, Pan144607 PDX [4] | tumor response, Pan0135 PDX [5] |
| --- | --- | --- | --- | --- | --- | --- | --- | --- |
| h7E6SVG-TG6-vc0101: h7E6SVG with heavy chain C-terminal TG6 tag (SEQ ID NO: 79) conjugated with AcLys-vc-PABC-0101 (conjugate) VH: QVQLQESGPGLVKPSETLSLTCTVSGGSISSYGVHWIRQPPGKGLEWIGVIWTSGVTDYNSALMGRVTISVDTSKNQFSLKLSSVTAADTAVYYCARDGDYDRYTMDYWGQGTLVTVSS VL: DIVMTQSPDSLAVSLGERATINCRASKSVSTSGYSYMHWYQQKPGQPPKLLIYLASNLESGVPDRFSGSGSGTDFTLTISSLQAEDVAVYYCQHSRELPYTFGQGTKLEIK | tumor regression | sustained tumor regression | superior efficacy to gemcitabine | 156 | tumor regression | tumor regression | – | – |
| h7E6SVG-N297Q/K222R-PEG6MMAD: h7E6SVG with N297Q/K222R mutations conjugated with PEG6-propionyl-MMAD (conjugate) VH: QVQLQESGPGLVKPSETLSLTCTVSGGSISSYGVHWIRQPPGKGLEWIGVIWTSGVTDYNSALMGRVTISVDTSKNQFSLKLSSVTAADTAVYYCARDGDYDRYTMDYWGQGTLVTVSS VL: DIVMTQSPDSLAVSLGERATINCRASKSVSTSGYSYMHWYQQKPGQPPKLLIYLASNLESGVPDRFSGSGSGTDFTLTISSLQAEDVAVYYCQHSRELPYTFGQGTKLEIK | – | – | – | > 267 | tumor regression | – | tumor regression | tumor regression |
